# Assays:
# [1] = biological target: activated FIX-albumin fusion protein with cleavable linker 1088/797 (human) (UniProt P00740); test: cell-based or functional assay
# [2] = biological target: activated FIX-albumin fusion protein with non-cleavable linker 980/797 (human) (UniProt P00740); test: cell-based or functional assay
substance,measurement,setting,value
antithrombin III (from UniProt P01008 33-464),clotting time (naPTT) after 120 min incubation with AT,[1],540 s
same,"clotting time (naPTT), control with AT but without incubation",[1],210 s
same,factor of increase in clotting time (naPTT) after 120 min incubation with AT,[1],2.57 x
same,clotting time (naPTT) after 120 min incubation with AT,[2],411 s
same,"clotting time (naPTT), control with AT but without incubation",[2],196 s
